Laboratory results published in PMC4503747, “The Gcn2 Regulator Yih1 Interacts with the Cyclin Dependent Kinase Cdc28 and Promotes Cell Cycle Progression through G2/M in Budding Yeast” (PLoS ONE, 2015).

Biological target: T1, GST-Yih1*H2 (E87A and D90A in helix H2 of the RWD domain) (S. cerevisiae, UniProt P25637 1-258, E87A | D90A)
T1 construct: Yih1, S. cerevisiae, with alanine substitutions of Glu-87 and Asp-90;; source: S. cerevisiae yih1Δ strain MSY-Y2, galactose-inducible promoter, in whole cell extract
T1 sequence (looked up): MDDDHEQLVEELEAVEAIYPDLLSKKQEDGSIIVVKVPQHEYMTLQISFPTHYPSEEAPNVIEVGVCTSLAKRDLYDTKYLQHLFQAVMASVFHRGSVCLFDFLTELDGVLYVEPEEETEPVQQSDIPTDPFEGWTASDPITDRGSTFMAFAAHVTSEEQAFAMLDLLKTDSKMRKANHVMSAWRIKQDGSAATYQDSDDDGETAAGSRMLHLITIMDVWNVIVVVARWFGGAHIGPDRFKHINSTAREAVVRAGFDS
Assay: pull-down; in vivo GST pull-down: GST fusions overexpressed in yeast from a galactose-inducible promoter (yih1Δ strains; gcn1Δ strain H2556 for the fragments; also cells arrested in G1 with α-factor and released), WCE (1-2 mg) on glutathione beads, immunoblot for endogenous proteins
Conditions: partners not purified

B1: Cdc28 (endogenous, yeast whole cell extract) (natural protein)
chain: not shown
notes: Cdc28, cyclin-dependent kinase of S. cerevisiae, endogenous; In the extract Cdc28 may be in complexes with cyclins and other regulators; also called endogenous Cdc28; native Cdc28; source: endogenous, S. cerevisiae whole cell extract
fold increase of co-precipitated Cdc28 against wild type GST-Yih1: ~5 fold
